This sample holds only a part of the variants without activity.
B1: TPR 5TU (parent)
chain: GGAUCUUCUCGAUCUAACAAAAAAGACAAAUCUGCCACAAAGCUUGAGAGCAUCUUCGGAUGCAGAGGCGGCAGCCUUCGGUGGCGCGAUAGCGCCAACGUUCUCAACUAUGACACGCAAAACGCGUGCUCCGUUGAAUGGAGUUUAUCAUG

Variants of: B1
Assay: polymerase ribozyme fitness, log enrichment relative to wild type (log ratio); higher = more active; in vitro selection for triplet polymerase activity
Method in brief: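 Fitness compares each genotype's enrichment to that of the wild type on a logarithmic scale, averaging replicates with inverse-variance weights. The logarithm is base 2. Enrichment came from Illumina sequencing of input and output libraries after one triplicate round of in vitro selection, which included frozen incubation at −7 °C, of PCR-built, transcribed mutant libraries of each subunit of a heterodimeric triplet polymerase ribozyme. Only genotypes with ≥10 input reads and ≥1 read per output were kept.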

Point of comparison: C57G G86U, “polymerase ribozyme fitness (log ratio)” value -1.26. Against it:
- A3G U33C G58C C116G U139A G141U U146C — lower, ≤ -4.2
- C87A A119U A147C — lower, -4.05
- A17G C87A C103U — lower, ≤ -4.2
- A12U C96U — higher, -0.566
- U55G G59A G83A A98C C116G U127G — lower, -4.04
- C27A A49C U90G U145C — lower, ≤ -4.2
- U31C — higher, 0.947
- C14G A20C C38U A147U — lower, -2.09
- U6C U31C A52U G58A C95G U145A — lower, -2.9
- A3C U15A A19U C75U C87U — lower, -1.71
- U45A G83C — lower, -3.51
- G50A A52G C76U A98G C123G — lower, -2.81
- C54G G59C G83U C87U G94A U102C U148G — lower, ≤ -4.2
- G48A G62A A73U A91G C95G U139A A142C — lower, ≤ -4.2
- A40U C85U — higher, -0.107
- A23G C35U U56A C85A C118U G124U — lower, -4.08
- C57A G86U — within 0.2 log units, -1.32
- A49C U56A A113U G152U — lower, -3.93
- A91U A106G — lower, -4.01
- U13C A26U A52C U55A G88A A89C C99U U135G A142U — lower, ≤ -4.2
- U44G G141A — lower, -4.12
- A47G C51G C76U C87U U104G A107U U151C — lower, ≤ -4.2
- A41G C76U G84U C85A A97U G100A G140U — lower, ≤ -4.2
- A24U C99U — lower, -1.46
- A12U G58U A60U G86C A107U G133U C149G — lower, ≤ -4.2
- A26G A29C G50A U90G — lower, ≤ -4.2
- C18A A21C A37C G81A C87G — lower, ≤ -4.2
- C32A A40U G62U C85G U146A — lower, ≤ -4.2
- U45A G62C A107U — lower, ≤ -4.2
- G42C C54A A64C U77A G83C G126A U145A — lower, ≤ -4.2
- A17U A19U A37U U53A G58A C95A A121G A122C — lower, -3.75
- C87U C116A G117C C118G — lower, -1.82
- U44A U45A A49C C57U G70A G84U A91U C123G — lower, ≤ -4.2
- A40C G126A G128U — lower, -4.14
- C5U A47G C79A A138G — lower, ≤ -4.2
- C72U C76A — lower, -1.91
- G84A G128U — lower, -3.84
- A12G C18U G83U A89G C96U — lower, -1.73
- A12U C14G A29C C32U U45A G80C — lower, ≤ -4.2
- A12U U15G U56A G71C G84A G117U A120U A147U — lower, -3.53
- A24U A60U G84U — lower, -2.22
- U55A A73U C99U U145C — lower, ≤ -4.2
- G59A C75U C85U U144A — lower, -1.61
- G11A C27U A49G C96A C118U U145A — lower, -4.19
- A3U A39G A52G U144C — lower, -3.97
- G46A A47C U53A C57U A107U G117A — lower, ≤ -4.2
- G80U G81A A142G — lower, -1.49
- U53G C76A U134A — lower, ≤ -4.2
- A20C A28C A37U G42U G71A C85U C99G A106G C131G — lower, ≤ -4.2
- A40U U55G C96G — higher, -0.541
- C76A C85A G92A G94U C103A C108U A122C — lower, ≤ -4.2
- G68U A91G — lower, ≤ -4.2
- C76A G140C — lower, -3.36
- A23G G83A G94A C125U A147C — lower, ≤ -4.2
- A22U A37U C95U U146A — lower, -1.67
- C14A A37U G50U G94U A106U — lower, ≤ -4.2
- C8A C32G A47U C54G G92U — lower, ≤ -4.2
- A17G C79A G80C U109C — lower, ≤ -4.2
- G48C C63A G83A G133C — lower, -3.98
- G50A C116A — higher, -0.537
- U13C C54U C103U — lower, -1.54
- A21U C75G — lower, -4.03
- U61A C95A — within 0.2 log units, -1.41
- G152C — lower, -2.58
- G59U A60C G83A C116U C118G — lower, -2.5
- A30C U53A U78G G84U A137G — lower, ≤ -4.2
- U109G C125U C129U — lower, -4.06
- A39G C96U C125A — lower, -2.58
- G25U A26G G68C A107G U135C — lower, ≤ -4.2
- A22C U33A G50A A66U C93U G100C A138G C149A — lower, ≤ -4.2
- C10U C93U — lower, -4.06
- C8G C35U G46C C72U G74U C96U A107G — lower, ≤ -4.2
- A52C C57G G94A G100U U148A — lower, ≤ -4.2
- C51U G83U G86U G94A U135G U144G G152C — lower, ≤ -4.2
- A47G G50A A52U C63A A142C — lower, ≤ -4.2
- U7A A22C C85U — lower, -4.04
- C96U A119U — higher, -0.778
- A19G A91C C116A G141A U145G — lower, ≤ -4.2
- A20G G124U — higher, -0.645
- A23C U44G A47U A91U A122U — lower, ≤ -4.2
- U4A C76G A91U A115U — lower, ≤ -4.2
- U55A A89G — within 0.2 log units, -1.16
- C5A G11A G84A C95A C103U C116U — lower, -1.5
- C63G G81U G92A G117C C118U G143U — lower, ≤ -4.2
- C18G A23C G34A A66U G84U U135A — lower, ≤ -4.2
- C54A U56A — within 0.2 log units, -1.31
- A47C C51G C87U A89U A107G — lower, ≤ -4.2
- A19U C51U C54A C85G C132G — lower, ≤ -4.2
- U55A A137G G141A — lower, -1.96
- A26G U55G C87A A115U C118U C149G — lower, ≤ -4.2
- C5G C32A C57U C99U — lower, ≤ -4.2
- G94C A106G — within 0.2 log units, -1.31
- C57A G59A G84U A97U C118G — lower, -3.12
- G11A C27A A73C G74A G81A A89U C93G G126U — lower, ≤ -4.2
- G59U C85G A119U G128A — lower, -4.19
- A47U G62A U127C G133U — lower, ≤ -4.2
- A23C U45C A52C U55A C75G C76U C93A A119G G143U — lower, -4.17
- A64U C87A C95U U139A — lower, ≤ -4.2
- C54A A91G A120G — lower, -3.57
- C69U C87A — lower, ≤ -4.2
- A30C C75G U78G C95G — lower, ≤ -4.2
- C36A C51U G68A C85G A97U — lower, ≤ -4.2
- G50A U55G C87U — within 0.2 log units, -1.24
- C5U A73G C85G — higher, -0.907
- C93U A137G — lower, -3.18
- C27U G65C A66C A73U C93A C108G C129G — lower, -3.81
- A22C C76A G128U C129U — lower, ≤ -4.2
- C14U G48U A52U A138C A142C U148G — lower, ≤ -4.2
- A21U C63U G84A — higher, -0.545
- A22C G42C C69G A91U — lower, ≤ -4.2
- C5U U6G C14U A20C A26U A37C A66U A120G — lower, ≤ -4.2
- C10G A26C C76A G83A — lower, ≤ -4.2
- A20U A30G C38U G59C A60C A73U G92U — lower, ≤ -4.2
- A41C C57U U82C G141A — within 0.2 log units, -1.09
- U56G U148G — lower, -3.89
- A19U A91C C129A — lower, ≤ -4.2
- C118U — higher, -0.256
- A3U C38U C96U G126U G143A — lower, ≤ -4.2
- A39U G141U — lower, -1.56
- C18G A19U G62C C85U C116A — lower, -1.81
- U33G G50U C51G A52C C76A G92A C93A A98U — lower, ≤ -4.2
- C10A A37U C79A C85U C87A — lower, ≤ -4.2
- A49U C85A — lower, -1.86
- C14U A64G — lower, -4.17
- G42A U56A G67U G94A — lower, ≤ -4.2
- U56A A89G — lower, -2.69
- C57G A115U U145A — lower, -1.54
- A16C A21U A39C U44A U45A A49G G84A G126U — lower, ≤ -4.2
- C103U — higher, -0.357
- C5G U55A G70C C85A C96U U151G — lower, ≤ -4.2
- U31C C57A G83U C118U G124U A142C — lower, -2.24
- C105U A106C — higher, 0.388
- C93U C116U A122U A150C — lower, -3.57
- U6C G83A C114U — lower, -2.57
- U6G C38U U44A G81C A120C G140U — lower, ≤ -4.2
- G25C A26C — lower, -2.94
- A37G C51G A52G U53A A89C G136C A138U — lower, ≤ -4.2
- A16U C32G G34A C85G U90G A97G U134G G141C — lower, ≤ -4.2
- A3U U55A G84A — higher, -0.911
- U13A U45A U56A G74A — lower, ≤ -4.2
- A60U G86A A150C — lower, ≤ -4.2
- C18U A30C C32U A39U A49C U53G C93G C96U U127G U139G G140U A147C U151A — lower, ≤ -4.2
- U101A A115U G141A — lower, -2.17
- A3U G59C — higher, -0.00695
- G59C U127A — lower, -3.77
- U31C A41G A66C G68C C95G — lower, ≤ -4.2
- A41G C96A C149U — higher, -0.509
- C5A C72U C85U C95U — higher, -0.0103
- A17G A22G U56A — higher, 0.0483
- C96U A97U — higher, -0.832
- U56G C85G A115U — lower, -3.43
- A26G G42U G48C G50U G84C C87G — lower, ≤ -4.2
- C57U G86A C99G — lower, -3.33
- A12C A113G A119U U145A — lower, -3.25
- U6G A60C A73C C87A C118U — lower, ≤ -4.2
- A3G C43U G65U G68A G71A G86U G112U G152A — lower, ≤ -4.2
- G58C C72U A98G — higher, 0.461
- A41G U45A C54G G92U — lower, -2.74
- G92A C103A G126A — lower, -3.74
- A17G A40C G48C — lower, -1.5
- C38G U44A G65C — lower, ≤ -4.2
- G42C A49U C63U — lower, -4.12
- C38U U53A — lower, -1.72
- A21G C27G C114U U135G U146A U148G — lower, ≤ -4.2
- U7C A23G A49U U56G G84U G86U A137U — lower, ≤ -4.2
- A60C G65U C132A — lower, -4.19

Source: the RNAGym collection of RNA variant scans (doi:10.1073/pnas.2313332121)
